{
  "source": "the nanobody polyreactivity screen of Harvey et al. (2022)",
  "data": [
    {"experiment": "yeast display, Sf9 membrane polyspecificity reagent, FACS + sequencing; frameworks hold sequencing errors", "method_in_brief": "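After 36–48 hours of galactose induction, yeast (Saccharomyces cerevisiae BJ5465) displaying a synthetic nanobody library were stained at 4 °C for 1 hour with 10% biotinylated, detergent-solubilized Sf9 membrane reagent. Streptavidin microbeads enriched the stained cells before FACS sorting into low and high (top ~1%) gates on anti-HA and streptavidin fluorescence. Each clone's polyreactivity label reflects its gate of origin.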", "values": [
      {"sequence": "QVQLEESGGGLVQAGGSLRLSCAASGRISESNDRGWYRQAPGKERQLVAAISSSGGSTYYADSVKGRFTISRDTAKNTVYLQLNSLKPEDTAVYYCAREYIFSVYDYSTSYYYWGQGTQVTVSS", "polyreactivity (PSR sort gate)": "low polyreactivity"},
      {"sequence": "QVQLEESGGGLVQAGGSLRLSCAASGRNFSVYAMGWYRPAPGKERELVARIRSGGSTYYADSVKGRFTISRDNAKNTVYLQMNSLKPEDTAVYYCAADGFASRWYAYYYWGQGTQVTVSS", "polyreactivity (PSR sort gate)": "high polyreactivity"},
      {"sequence": "QVQLEESGGGLVQAGGSLRLSCAASGRTFPLYVMGWYRQAPGKEREWVAAISARGGSTYYADSVKGRFTISRDNAKNTVYLQMNSLKPEDTAVYYCATLVTNGRYDSWGQGTQVTVSS", "polyreactivity (PSR sort gate)": "high polyreactivity"},
      {"sequence": "QVQLEESGGGLVQAGGSLRLSCAASGRTFQYYTMGWYRQAPGKEREFVAAIRDSGGSTYYADSVKGRFTISRDNAKNTVYLQMNSLKPEDTAVYYCNKVPNGPSNYDYWGQGTQVTVSS", "polyreactivity (PSR sort gate)": "high polyreactivity"},
      {"sequence": "QVQLEESGGGLVQAGGSLRLSCAASGRTFRYNAMGWYRQAPGKERELVVAINWSGGSTYYADSVKGRFTISRDNAKNTVYLQMNSLKPEDTAVYYCAAEPTGWVWYAGYGYYWGQGTRVTVSS", "polyreactivity (PSR sort gate)": "high polyreactivity"},
      {"sequence": "QVQLEESGGGLVQAGGSLRLSCAASGRTFVFNAMGWYRQAPGTERELVASINSRVGSTYYADSVKGRFTISRDNAKNTVYLQMNSLKPEDTAVYYCAARSYSSYYYWGQGTQVTVSS", "polyreactivity (PSR sort gate)": "high polyreactivity"},
      {"sequence": "QVQLEESGGGLVQAGGSLRLSCAASGRTSRSYTMGWYRQAPGKERELVAAITRGGRTYYADSVKGRFTISRDNANNTVYLQMNSLKPEDTAVYYCDTVRVQSYGYWGQGTQVTVSS", "polyreactivity (PSR sort gate)": "low polyreactivity"},
      {"sequence": "QVQLEESGGGLVQAGGSLRLSCAASGSIFAPYVMGWYRQATGKERELVAAITESGGRTYYADSVKGRFTISRDNAKNTVYLQMNSLKPEDTAVYYCAARTYDRNRQLRRQWYDYWGQGTQVTVSS", "polyreactivity (PSR sort gate)": "high polyreactivity"},
      {"sequence": "QVQLEESGGGLVQAGGSLRLSCAASGSIFFGNDMGWYSQAPGKERELVAGISNGGRTNYADSVKGRFTISRDNAKNHVYLLMHSLKPEDTAVYYCAKHPVYIYWSRVLVGYSSWGQGTQGTVSS", "polyreactivity (PSR sort gate)": "low polyreactivity"},
      {"sequence": "QVQLEESGGGLVQAGGSLRLSCAASGSIFGYNHMGWYRQAPGKERELVATITWGGGRTRYADSVKGRFTISRVNAKNTVYLQMNSLKPEDTAVYYCAADKRSYSYVRPPRNHEDYWGQGTQVTVSS", "polyreactivity (PSR sort gate)": "low polyreactivity"},
      {"sequence": "QVQLEESGGGLVQAGGSLRLSCAASGSIFKFYAMGWYRQAPGKEREFVAAIRQSGGRTYYADSVKGRFTISRDNAKNTVYLPMNSLKPEDTAVYYCAADGYYWEYYYWGQGTQVTVSS", "polyreactivity (PSR sort gate)": "high polyreactivity"},
      {"sequence": "QVQLEESGGGLVQAGGSLRLSCAASGSIFLNYGMGWYRQAPGKERELVAGISNGGSTNYADSVKGRFTISRDNAKNTVYLQMNSLKPEDTAVYYCARPAYKSRGKRFDYWGQGTQVTVSS", "polyreactivity (PSR sort gate)": "low polyreactivity"},
      {"sequence": "QVQLEESGGGLVQAGGSLRLSCAASGSIFPWYAMGWYRQAPGKERELVAVITSGGSTNYADSVKGRFTISRANAKNTVYLQMNSLYPEDTAVYYCYADAPLDDFSPRFEVSTEHSWGQGTQVTVSS", "polyreactivity (PSR sort gate)": "low polyreactivity"},
      {"sequence": "QVQLEESGGGLVQAGGSLRLSCAASGSIFQTYAMGWSRQAPGKERQLVAAITSGGGSTYYADSVKGRFTISRDNAKNTVYLQMNSLKREDTAVYYCAAGSRFVSSRLYYWGQGTQVTVSS", "polyreactivity (PSR sort gate)": "high polyreactivity"},
      {"sequence": "QVQLEESGGGLVQAGGSLRLSCAASGSIFRSYAMGWYRQAPGKEREFVAAINSRSGSTYYADSVKGRFTISRDNAKNTVYLQMNSLKPEDTAVYYCAAKFAQPDYRYDYWGQGTQVTVSS", "polyreactivity (PSR sort gate)": "high polyreactivity"},
      {"sequence": "QVQLEESGGGLVQAGGSLRLSCAASGSIFSAYFMVWYRQAPGKERELVAAINRGGNTYYADSVKGRFTISRDNANITVYLQMNSLKPEDTAVYYCNAQWYYLRYRYDYWGQGTQVTVSS", "polyreactivity (PSR sort gate)": "high polyreactivity"},
      {"sequence": "QVQLEESGGGLVQAGGSLRLSCAASGSIFSIYAMGWYRQAPGKERELVASITRSSGRTYYADSVKGRFTISRDNAKNTVYLQMNSLKPEDTAVYYCAKDYIPLALDADDYWGQGTQVTVSS", "polyreactivity (PSR sort gate)": "low polyreactivity"},
      {"sequence": "QVQLEESGGGLVQAGGSLRLSCAASGSIFVGYALGWYIQAPGKERELVASITTRGGSTHYADYVKGRFTISRDNAKNTVYLQMNSLKPEDTAVYYCAADSLSNGVLQYLPGYDYWGQGTQVTVSS", "polyreactivity (PSR sort gate)": "low polyreactivity"},
      {"sequence": "QVQLEESGGGLVQAGGSLRLSCAASGSIFYDNVMGWSRQAPGKERELVAGITRGGSTNYADSVKGPFTISRDNAKNTVYLQMNSLKPEDTAVSYCAADGTYVWGSEEGNYWGQGTQVNVSS", "polyreactivity (PSR sort gate)": "low polyreactivity"},
      {"sequence": "QVQLEESGGGLVQAGGSLRLSCAASGSIFYEYAMGLYRTAPGKERVFVAAISSRGGYTNYADSVKGRFTISRDNAKNTVYLQMNSLKPEDTAVYYWAGYGGLQSRYYYWGLGTQVTVSS", "polyreactivity (PSR sort gate)": "high polyreactivity"},
      {"sequence": "QVQLEESGGGLVQAGGSLRLSCAASGSIFYQYDMGWYRQAPGKERELVAAITQRGGRTYYADSVKGRFTISRDNAKNTVDLKMNSLKPELTAVYYCAADNDSYWGYVYWGQGTQVTVSS", "polyreactivity (PSR sort gate)": "high polyreactivity"},
      {"sequence": "QVQLEESGGGLVQAGGSLRLSCAASGSIIGPNAMGWYRQAPGKDRELVAAITSGSSTKYADSVKGRFTISRDNAMNTVYLQMNSLKPEDTAVDYCAASGTTTWKYGFWGQGTQVTVSS", "polyreactivity (PSR sort gate)": "low polyreactivity"},
      {"sequence": "QVQLEESGGGLVQAGGSLRLSCAASGSILDLNAMGWSRQATGKERELVAAISYSGDSTYYADSVKGRFTISRDNAKNTVYLQMNSQKPEDTAVYYCAAEVYGAVYDYWGQGTQVTVSS", "polyreactivity (PSR sort gate)": "low polyreactivity"},
      {"sequence": "QVQLEESGGGLVQAGGSLRLSCAASGSIYYLNAMGWYRQAPGKERELVAAINSGGTTNYADSVKGRFTISRDNAKYTVYLQMNSLKPEDTAVYYCATDGYYYYYRVYKFDYWGQGTQVTVSS", "polyreactivity (PSR sort gate)": "low polyreactivity"},
      {"sequence": "QVQLEESGGGLVQAGGSLRLSCAASGSTCPTNAIGWYRQAPRKERELVADITIRRGGTSYADSVKGRFTMSRDNAKNTVYLQMNSLKPEDTAVYYCARSKSTELKRLLYDSWGQGTQVTVSS", "polyreactivity (PSR sort gate)": "low polyreactivity"},
      {"sequence": "QVQLEESGGGLVQAGGSLRLSCAASGSTFDFNAMGWYRQVPGKERELVAAITSGGSTNYADSVKGRFTISRDNAKNTVYLQMNSLKPEDTAVYYCAARPARGDSQGGYVRPWCYDSWGQGTQVTGSS", "polyreactivity (PSR sort gate)": "low polyreactivity"},
      {"sequence": "QVQLEESGGGLVQAGGSLRLSCAASGSTFGFYAMRWYRQAPGKERDLVAAISSAARTYYADSVKGRFTISRDNAKNTVYLQMNSLKPADTAVYYCSAEAYHWTSYIGYGGVYYWGQGTQVTGSS", "polyreactivity (PSR sort gate)": "low polyreactivity"},
      {"sequence": "QVQLEESGGGLVQAGGSLRLSCAASGSTFVVYAMGWYRQAPGKERELVAAISGRGGRTYYADSVKGRFTISRDNAKNTVYLQMISLKPEDTAVYYCSTRYNNLYTIRVGEYDSWGQGTQVTVSS", "polyreactivity (PSR sort gate)": "high polyreactivity"},
      {"sequence": "QVQLEESGGGLVQAGGSLRLSCAASGSTFVYNALGWNRQAPGKEREFVAVINWSGGRTYADSVKGRFTISRDNAKTTVYLQMNSLNPDETEVYYCNAERRSYRFALQYRRYDYWGEGTQVTVSS", "polyreactivity (PSR sort gate)": "high polyreactivity"},
      {"sequence": "QVQLEESGGGLVQAGGSLRLSCAASGSTFWFNAMGWYRQAPGKERELVAVITWSGDGTYYADSVKGRFTISRDNANYTVYLQRNSLKPEDTAVYYCAKGFERYPWYDYWGQGTQVTVSS", "polyreactivity (PSR sort gate)": "low polyreactivity"},
      {"sequence": "QVQLEESGGGLVQAGGSLRLSCAASGSTFYEYAMGWYRQAPGKERELVAAITTVGSTNYADSLKGRFTISRDNAKNTVYLQMNSLKPEDTAVYYCNKRPVILYDYWGLGTQVTVSS", "polyreactivity (PSR sort gate)": "low polyreactivity"},
      {"sequence": "QVQLEESGGGLVQAGGSLRLSCAASGSTFYIYAMGSYRQAPGKERELVARMSGSGGSTYYADSVKGRFTISRDNAKNTVYLQMNSVKPEDTAVYYCAADDIYKYYQYYAFPYYRYDYWGQGTQVTVSS", "polyreactivity (PSR sort gate)": "low polyreactivity"},
      {"sequence": "QVQLEESGGGLVQAGGSLRLSCAASGSTFYPYAMGWYIQAPGTERELVAAISSRDGRTYYADSVKGRFTISRDNAKNTVYLQMNSLTPEDTAVYYCAASSFNNGHRYDYWGQGTQVTVSS", "polyreactivity (PSR sort gate)": "high polyreactivity"},
      {"sequence": "QVQLEESGGGLVQAGGSLRLSCAASGSTNVKYAMGWYRQAPGKERELVAAITYSGDSTYYADSLKGRFTSSRDNAKNTVYLQINSLKPEDTAVYYWAAELVVRYMVSDYELEYWGQGTQVTVSS", "polyreactivity (PSR sort gate)": "low polyreactivity"},
      {"sequence": "QVQLEESGGGLVQAGGSLRLSCAASGSTYPSNAMGWYRQATGKERELVATITTGGSTYYADSVKGRFTISRDNAKNTVYLQMNSLKPEDTAVYYCNAEYVYLIFSVYLYDYDYWGLGTQVTVSS", "polyreactivity (PSR sort gate)": "low polyreactivity"},
      {"sequence": "QVQLEESGGGLVQAGGSLRLSCAASGYILNDYTKGWYRQAPGKERELVAAITSSGDRTYYADSVKGRFTISRDNAKNTVYLQMNSLNPEDTAVYYCAADIYLGDYYYWGLGTQVTVSS", "polyreactivity (PSR sort gate)": "low polyreactivity"},
      {"sequence": "QVQLEESGGGLVQAGGSLRLSCAASGYTFSHYAIGWYRQAPGKERELVAGITWSGGSTYYADSVKGRFTISRDYAKNTVYLQMNSLKPEDTSVYYCAAKYYWYYSYSGIPLFDYWGQGTQVTVSS", "polyreactivity (PSR sort gate)": "low polyreactivity"},
      {"sequence": "QVQLEESGGGLVQAGGSLRLSCAASGYTFYLYAMAWYRQSPGKERELVAAISTNGGRTYYADSVKGRFTISRDNAKNTVYLQMNSLKPEDTAVYYCAVRSRGTAPQYYYWGQGTQVTVSS", "polyreactivity (PSR sort gate)": "high polyreactivity"},
      {"sequence": "QVQLEESGGGLVQAGGSLRLSCAASGYTFYRYTMGWYRQAPGKERELVAAISSRGGSKYYADSVKGRFTISRDNAKNTVYLQMNSLKPEDTAVYFCARKYPRKTLSKGFDYWGQGTQVTVSS", "polyreactivity (PSR sort gate)": "high polyreactivity"},
      {"sequence": "QVQLEESGGGLVQAGGSLRLSCADSGRTFRFYTIGWYRQAPGKERELVASISWGGTSTYYADSVKGRFTISRDNANNTVYLQMISLKPEDTAVYSCAAPRWVEGFRFDYWGQGTQVTVSS", "polyreactivity (PSR sort gate)": "high polyreactivity"},
      {"sequence": "QVQLEESGGGLVQAGGSLRLSCAGSGRIFIHYTMGWYRQAPGKERELVAAISTSGGSTYYADSVKGRFTISRDTAKNTVYLQMKSLKPEDTAGYYCAPVYRGYSGEGYYWGQGSQVTVSS", "polyreactivity (PSR sort gate)": "high polyreactivity"},
      {"sequence": "QVQLEESGGGLVQAGGSLRLSCDASGFTFAYYAMGWYRPAPGKEREFVAAITKGGGSTNYADSVKGRFTISRDNAKNTVYLQMNSLKPEDTAVYYCNADYFVWYIGRVFSRYGYWGLGTQVTVSS", "polyreactivity (PSR sort gate)": "low polyreactivity"},
      {"sequence": "QVQLEESGGGLVQAGGSLRLSCPASGRTFHGYAMGSYRQAPGKERELVAAITGTGGRTYYADSVKGRFTISRDNAKNTVYLQMNSLKPEDTAVYYCAARPWIKSGYWGQGTQVTVSS", "polyreactivity (PSR sort gate)": "high polyreactivity"}
    ]}
  ]
}
